Reference: publication PMC5420311 (Nature structural & molecular biology, 2017)

Molecular target: phosphoubiquitin (UniProt P0CG48 1-76, phosphorylated by PINK1 (Ser65))
Assay: ITC

B1: ΔUBL-Parkin (80-465) (domain or fragment)
chain: MNATGGDDPRNAAGGCEREPQSLTRVDLSSSVLPGDSVGLAVILHTDSRKDSPPAGSPAGRSIYNSFYVYCKGPCQRVQPGKLRVQCSTCRQATLTLTQGPSCWDDVLIPNRMSGECQSPHCPGTSAEFFFKCGAHPTSDKETSVALHLIATNSRNITCITCTDVRSPVLVFQCNSRHVICLDCFHLYCVTRLNDRQFVHDPQLGYSLPCVAGCPNSLIKELHHFRILGEEQYNRYQQYGAEECVLQMGGVLCPRPGCGAGLLPEPDQRKVTCEGGNGLGCGFAFCRECKEAYHEGECSAVFEASGTTTQAYRVDERAAEQARWEAASKETIKKTTKPCPRCHVPVEKNGGCMHMKCPQPQCRLEWCWNCGCEWNRVCMGDHWFDV
  binding result: binds
